{
  "source": "patent US20110070185A1",
  "about": "(Janssen / Centocor, published 2011)",
  "binders": {"B1": {"name": "P3-7 (peptide)", "peptide": "SLVLNLL", "notes": "synthetic truncated peptide; also called SLVLNLL"}, "B2": {"name": "P14-4 (peptide)", "peptide": "LPGITRV", "notes": "synthetic truncated peptide; also called LPGITRV"}, "B3": {"name": "P13-9 (peptide)", "peptide": "TLVDLPG", "notes": "synthetic truncated peptide; also called TLVDLPG"}, "B4": {"name": "P14-9 (peptide)", "peptide": "TLIDLPG", "notes": "synthetic truncated peptide; also called TLIDLPG"}, "B5": {"name": "P3-3 (peptide)", "peptide": "LNLLEL", "notes": "synthetic truncated peptide; also called LNLLEL"}, "B6": {"name": "P3-6 (peptide)", "peptide": "SLVLNL", "notes": "synthetic truncated peptide; also called SLVLNL"}, "B7": {"name": "P13-4 (peptide)", "peptide": "LPGMTKV", "notes": "synthetic truncated peptide; also called LPGMTKV"}, "B8": {"name": "P3-5 (peptide)", "peptide": "SLVLNLL", "notes": "as for B1"}, "B9": {"name": "P14-5 (peptide)", "peptide": "PGITRV", "notes": "synthetic truncated peptide; also called PGITRV"}, "B10": {"name": "P3-2 (peptide)", "peptide": "VLNLLEL", "notes": "synthetic truncated peptide; also called VLNLLEL"}, "B11": {"name": "P3-8 (peptide)", "peptide": "LVLNLLE", "notes": "synthetic truncated peptide; also called LVLNLLE"}, "B12": {"name": "P13-5 (peptide)", "peptide": "PGMTKV", "notes": "synthetic truncated peptide; also called PGMTKV"}, "B13": {"name": "P13-15 (peptide)", "peptide": "DLPGMTK", "notes": "synthetic truncated peptide; also called DLPGMTK"}, "B14": {"name": "P13-14 (peptide)", "peptide": "VDLPGMT", "notes": "synthetic truncated peptide; also called VDLPGMT"}, "B15": {"name": "P13-10 (peptide)", "peptide": "TLVDLP", "notes": "synthetic truncated peptide; also called TLVDLP"}, "B16": {"name": "P14-10 (peptide)", "peptide": "TLIDLP", "notes": "synthetic truncated peptide; also called TLIDLP"}, "B17": {"name": "P14-17 (peptide)", "peptide": "DLPGITR", "notes": "synthetic truncated peptide; also called DLPGITR"}, "B18": {"name": "P19 (peptide)", "peptide": "NLKAALENLGAL", "notes": "synthetic peptide; also called peptide 19; NLKAALENLGAL"}, "B19": {"name": "P2 (peptide)", "peptide": "LLPGRTVLV", "notes": "synthetic peptide; also called peptide 2"}, "B20": {"name": "P24 (peptide)", "peptide": "LKIHAREIFD", "notes": "synthetic peptide; also called peptide 24"}, "B21": {"name": "P18 (peptide)", "peptide": "LKNKLKDLGH", "notes": "synthetic peptide; also called peptide 18"}, "B22": {"name": "P4 (peptide)", "peptide": "RSLFLLYAL", "notes": "synthetic peptide; also called peptide 4; RSLFLLYAL"}},
  "data": [
    {"target": "T1, HLA-A2 molecules in T2 cells (human)", "T1 construct": "whole, on cells; Target of the HLA-A2 Stabilization Assay; also called MHC class I, HLA-A2; MHC/HLA-A2", "assay": "HLA-A2 stabilization assay on T2 cells", "values": [
      {"binder": "LVLNLLEL (synthetic truncated peptide)", "note": "[P3-1]", "binding result": "no binding"},
      {"binder": "TLVDLPGMT (synthetic truncated peptide)", "note": "[P13-7]", "binding result": "no binding"},
      {"binder": "B1", "binding result": "no binding"},
      {"binder": "VDLPGMTK (synthetic truncated peptide)", "note": "[P13-12]", "binding result": "no binding"},
      {"binder": "TLIDLPGI (synthetic truncated peptide)", "note": "[P14-8]", "binding result": "no binding"},
      {"binder": "LIDLPGITRV (synthetic truncated peptide)", "note": "[P14-1]", "binding result": "no binding"},
      {"binder": "B2", "binding result": "no binding"},
      {"binder": "B3", "binding result": "no binding"},
      {"binder": "B4", "binding result": "no binding"},
      {"binder": "TLIDLPGIT (synthetic truncated peptide)", "note": "[P14-7]", "binding result": "no binding"},
      {"binder": "TLIDLPGIT (synthetic truncated peptide)", "note": "[P14-11]", "binding result": "no binding"},
      {"binder": "B5", "binding result": "no binding"},
      {"binder": "B6", "binding result": "no binding"},
      {"binder": "TLVDLPGMTK (synthetic truncated peptide)", "note": "[P13-6]", "binding result": "no binding"},
      {"binder": "B7", "binding result": "no binding"},
      {"binder": "B8", "binding result": "no binding"},
      {"binder": "B9", "binding result": "no binding"},
      {"binder": "SLVLNLLE (synthetic truncated peptide)", "note": "[P3-4]", "binding result": "no binding"},
      {"binder": "DLPGITRV (synthetic truncated peptide)", "note": "[P14-3]", "binding result": "no binding"},
      {"binder": "VDLPGMTKV (synthetic truncated peptide)", "note": "[P13-2]", "binding result": "no binding"},
      {"binder": "TLVDLPGM (synthetic truncated peptide)", "note": "[P13-8]", "binding result": "no binding"},
      {"binder": "IDLPGITRV (synthetic truncated peptide)", "note": "[P14-2]", "binding result": "no binding"},
      {"binder": "TLIDLPGITR (synthetic truncated peptide)", "note": "[P14-6]", "binding result": "no binding"},
      {"binder": "LIDLPGITR (synthetic truncated peptide)", "note": "[P14-12]", "binding result": "no binding"},
      {"binder": "LVDLPGMT (synthetic truncated peptide)", "note": "[P13-11]", "binding result": "no binding"},
      {"binder": "LVDLPGMTKV (synthetic truncated peptide)", "note": "[P13-1]", "binding result": "no binding"},
      {"binder": "B10", "binding result": "no binding"},
      {"binder": "B11", "binding result": "no binding"},
      {"binder": "B12", "binding result": "no binding"},
      {"binder": "B13", "binding result": "no binding"},
      {"binder": "B14", "binding result": "no binding"},
      {"binder": "LIDLPGIT (synthetic truncated peptide)", "note": "[P14-13]", "binding result": "no binding"},
      {"binder": "B15", "binding result": "no binding"},
      {"binder": "B16", "binding result": "no binding"},
      {"binder": "DLPGMTKV (synthetic truncated peptide)", "note": "[P13-3]", "binding result": "no binding"},
      {"binder": "B17", "binding result": "no binding"}
    ]},
    {"target": "T1, HLA-A2 molecules in T2 cells", "assay": "HLA-A2 stabilization assay on T2 cells, flow cytometry with FITC anti-HLA-A2", "values": [
      {"binder": "B18", "binding result": "no binding (tested: up to 200 uM)"},
      {"binder": "B19", "binding result": "no binding (tested: up to 200 uM)"},
      {"binder": "B20", "binding result": "no binding (tested: up to 200 uM)"},
      {"binder": "B21", "binding result": "no binding (tested: up to 200 uM)"},
      {"binder": "B22", "binding result": "no binding (tested: up to 200 uM)"}
    ]},
    {"target": "T1, HLA-A2 molecules in T2 cells", "assay": "HLA-A2 stabilization assay on T2 cells", "remark": "another data set of the same source", "values": [
      {"binder": "FMLQTYGQQL (synthetic computer predicted peptide)", "note": "[P14-18]", "binding result": "no binding"}
    ]}
  ]
}
